One experiment concerns the target T1, Human plasma sIL-6R (human, UniProt P08887 20-355, limits assumed).
T1 construct: also called plasma-derived human IL-6R
T1 sequence (looked up): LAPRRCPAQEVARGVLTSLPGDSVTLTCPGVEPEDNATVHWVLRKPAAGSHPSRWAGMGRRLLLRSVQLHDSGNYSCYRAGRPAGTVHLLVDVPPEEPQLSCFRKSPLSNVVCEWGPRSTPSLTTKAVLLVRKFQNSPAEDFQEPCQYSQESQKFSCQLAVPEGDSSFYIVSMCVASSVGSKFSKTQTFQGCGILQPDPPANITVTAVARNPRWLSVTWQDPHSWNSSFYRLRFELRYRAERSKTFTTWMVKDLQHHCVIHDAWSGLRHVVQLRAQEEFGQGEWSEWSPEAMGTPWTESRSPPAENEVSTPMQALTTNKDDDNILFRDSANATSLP
The experiment can be described thus: plasma potency ELISA, human plasma, high IL-6 (EC95). On the technique in general: An ELISA detects its analyte on a solid surface through an enzyme-linked reagent.

A further experiment concerns the target T2, IL12-p40 (UniProt P29460 23-328).
T2 sequence (looked up): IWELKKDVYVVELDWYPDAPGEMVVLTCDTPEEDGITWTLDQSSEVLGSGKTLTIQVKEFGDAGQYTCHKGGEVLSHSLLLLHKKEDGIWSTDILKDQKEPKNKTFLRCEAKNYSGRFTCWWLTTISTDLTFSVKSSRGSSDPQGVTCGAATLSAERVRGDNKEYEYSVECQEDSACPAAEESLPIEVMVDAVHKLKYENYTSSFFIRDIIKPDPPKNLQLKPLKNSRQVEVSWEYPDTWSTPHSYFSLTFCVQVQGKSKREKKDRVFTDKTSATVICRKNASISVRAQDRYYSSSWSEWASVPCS
Nature of the experiment: competitive binding ELISA, similar setup (results not shown).

The next experiment concerns the target T3, CLF-1/CLC (UniProt O75462 38-422; Q9UBD9 28-225, limits assumed).
T3 sequence (looked up) 1: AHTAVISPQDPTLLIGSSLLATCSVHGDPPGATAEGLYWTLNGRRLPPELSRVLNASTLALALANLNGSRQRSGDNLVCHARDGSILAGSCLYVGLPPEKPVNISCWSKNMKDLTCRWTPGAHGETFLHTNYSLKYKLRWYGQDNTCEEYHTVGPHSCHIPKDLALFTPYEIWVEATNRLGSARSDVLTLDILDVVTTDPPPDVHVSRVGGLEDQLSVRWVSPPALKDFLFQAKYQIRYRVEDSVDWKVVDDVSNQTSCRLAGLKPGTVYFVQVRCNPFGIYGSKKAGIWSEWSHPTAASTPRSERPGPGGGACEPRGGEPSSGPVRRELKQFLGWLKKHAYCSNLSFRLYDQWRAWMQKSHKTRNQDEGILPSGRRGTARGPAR
T3 sequence (looked up) 2: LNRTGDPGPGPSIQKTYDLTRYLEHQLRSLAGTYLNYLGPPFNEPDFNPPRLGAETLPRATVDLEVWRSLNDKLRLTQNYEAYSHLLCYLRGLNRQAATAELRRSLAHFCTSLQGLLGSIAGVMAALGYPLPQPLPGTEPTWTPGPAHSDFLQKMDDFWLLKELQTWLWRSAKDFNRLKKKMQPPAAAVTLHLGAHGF
The experiment is described as above.

In another experiment the target is T4, gp130/Fc (UniProt P40189 23-619).
T4 construct: not shown: Fc part, not described
T4 sequence (looked up): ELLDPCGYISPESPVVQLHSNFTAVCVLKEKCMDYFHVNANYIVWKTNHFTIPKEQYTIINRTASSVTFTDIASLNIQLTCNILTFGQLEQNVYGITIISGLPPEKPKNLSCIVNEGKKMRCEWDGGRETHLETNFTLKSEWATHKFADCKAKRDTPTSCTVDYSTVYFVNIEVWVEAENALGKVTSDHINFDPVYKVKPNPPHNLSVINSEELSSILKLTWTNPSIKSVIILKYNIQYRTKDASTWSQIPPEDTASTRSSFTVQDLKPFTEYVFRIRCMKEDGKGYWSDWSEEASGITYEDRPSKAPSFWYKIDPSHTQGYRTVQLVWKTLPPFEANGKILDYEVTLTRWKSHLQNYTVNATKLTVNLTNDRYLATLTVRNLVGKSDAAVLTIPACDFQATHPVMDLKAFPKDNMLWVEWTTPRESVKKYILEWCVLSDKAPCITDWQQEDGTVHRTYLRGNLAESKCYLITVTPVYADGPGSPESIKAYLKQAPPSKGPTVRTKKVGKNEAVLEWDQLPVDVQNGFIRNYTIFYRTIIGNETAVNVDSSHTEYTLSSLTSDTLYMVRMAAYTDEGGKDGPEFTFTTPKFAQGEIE
The description is as above.

The next experiment has as its target T5, Cyno plasma sIL-6R (cynomolgus monkey, UniProt A0A2K5WN54 60-396).
T5 construct: also called cynomolgus sIL-6R
T5 sequence: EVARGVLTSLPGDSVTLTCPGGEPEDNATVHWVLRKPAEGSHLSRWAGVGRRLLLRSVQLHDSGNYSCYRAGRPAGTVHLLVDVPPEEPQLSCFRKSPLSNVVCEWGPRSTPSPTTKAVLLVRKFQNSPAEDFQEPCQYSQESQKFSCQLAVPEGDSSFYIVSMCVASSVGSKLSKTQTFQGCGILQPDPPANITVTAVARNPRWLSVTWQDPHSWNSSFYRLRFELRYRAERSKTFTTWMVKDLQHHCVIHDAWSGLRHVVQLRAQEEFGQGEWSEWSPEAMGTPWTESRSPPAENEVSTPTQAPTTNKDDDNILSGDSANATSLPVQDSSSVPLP
Nature of the experiment: plasma potency assay, cyno plasma, 2.4 nM IL6; blocked ligand IL-6.

Experiment [1] concerns the target T6, Human membrane IL-6R on cells (human, UniProt P08887 20-468).
T6 construct: whole, on cells; also called cell-surface expressed human IL-6R
T6 sequence (looked up): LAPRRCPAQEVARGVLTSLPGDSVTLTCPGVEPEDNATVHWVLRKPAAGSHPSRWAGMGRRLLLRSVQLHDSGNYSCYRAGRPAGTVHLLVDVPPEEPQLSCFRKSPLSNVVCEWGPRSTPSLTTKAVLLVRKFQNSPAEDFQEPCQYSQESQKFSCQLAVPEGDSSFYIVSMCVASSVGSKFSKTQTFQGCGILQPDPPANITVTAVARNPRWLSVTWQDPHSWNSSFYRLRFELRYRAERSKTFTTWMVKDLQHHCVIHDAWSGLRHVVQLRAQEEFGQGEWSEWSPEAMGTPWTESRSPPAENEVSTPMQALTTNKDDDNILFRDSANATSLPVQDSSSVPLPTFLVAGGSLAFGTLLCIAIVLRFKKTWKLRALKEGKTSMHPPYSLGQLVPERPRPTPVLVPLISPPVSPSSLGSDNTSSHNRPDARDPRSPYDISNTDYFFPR
Nature of the experiment: flow cytometry, human PBL, granulocytes donor 1. (In general: In flow cytometry, cells or beads pass a laser one at a time.)

One molecule from patent US20120077731A1 (Ablynx, published 2012) can be followed below.

In general, IC50 refers to the concentration needed to halve the response being measured. A higher IC50 goes with weaker potency in that assay. The term EC50 denotes the concentration at which the effect is half-maximal. Read a high EC50 as a less potent agent.

B1: PMP20A11 (VHH)
VHH: EVQLVESGGGLVQPGGSLRLSCAASGSVFKINVMAWYRQAPGKGRELVAGIISGGSTSYADSVKGRFTISRDNAKNTLYLQMNSLRPEDTAVYYCAFITTESDYDLGRRYWGQGTLVTVSS
notes: also called IL6R20A11; IL6R300; not shown: c-myc and (His)6 tags
As for B1, the IC50 with Human plasma sIL-6R is 0.356 nM; in the experiment with Cyno plasma sIL-6R, 0.09 nM. Further, the binding result with IL12-p40, in the experiment with CLF-1/CLC and with gp130/Fc was “no binding (tested: 100 nM)” in each case. In addition, in experiment [1], the EC50 came to 2.42 nM.
